Test results taken from US20220298218A1 (ANTAG THERAPEUTICS, published 2022).
Like-named read-outs stand apart in the source and are kept apart here. Where no end group is shown, it is not given here. The star is where a group is joined. C16 diacid = O=C(O)CCCCCCCCCCCCCCC(=O)*

T1: human GIP receptor (human, UniProt P48546 22-466)
T1 sequence (looked up): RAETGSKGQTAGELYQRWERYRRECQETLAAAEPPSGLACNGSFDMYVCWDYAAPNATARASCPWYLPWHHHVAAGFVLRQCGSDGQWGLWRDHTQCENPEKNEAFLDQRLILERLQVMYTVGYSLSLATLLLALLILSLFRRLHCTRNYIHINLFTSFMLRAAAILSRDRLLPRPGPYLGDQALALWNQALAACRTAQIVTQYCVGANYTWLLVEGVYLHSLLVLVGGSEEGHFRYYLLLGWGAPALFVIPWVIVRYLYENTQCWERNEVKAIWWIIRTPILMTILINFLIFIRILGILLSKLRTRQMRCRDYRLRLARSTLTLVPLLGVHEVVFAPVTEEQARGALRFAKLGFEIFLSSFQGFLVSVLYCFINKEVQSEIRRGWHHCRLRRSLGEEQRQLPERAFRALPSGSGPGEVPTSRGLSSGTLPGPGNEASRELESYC

B1: AT448 (peptide)
peptide: EGTFISDYSIAMDKIK(C16 diacid)QQDFVNWLLAQKGK-OH
modifications: N-terminus assumed
SMILES: CC[C@H](C)[C@H](NC(=O)[C@H](CO)NC(=O)[C@H](Cc1ccc(O)cc1)NC(=O)[C@H](CC(=O)O)NC(=O)[C@H](CO)NC(=O)[C@@H](NC(=O)[C@H](Cc1ccccc1)NC(=O)[C@@H](NC(=O)CNC(=O)[C@@H](N)CCC(=O)O)[C@@H](C)O)[C@@H](C)CC)C(=O)N[C@@H](C)C(=O)N[C@@H](CCSC)C(=O)N[C@@H](CC(=O)O)C(=O)N[C@@H](CCCCN)C(=O)N[C@H](C(=O)N[C@@H](CCCCNC(=O)CCCCCCCCCCCCCCC(=O)O)C(=O)N[C@@H](CCC(N)=O)C(=O)N[C@@H](CCC(N)=O)C(=O)N[C@@H](CC(=O)O)C(=O)N[C@@H](Cc1ccccc1)C(=O)N[C@H](C(=O)N[C@@H](CC(N)=O)C(=O)N[C@@H](Cc1c[nH]c2ccccc12)C(=O)N[C@@H](CC(C)C)C(=O)N[C@@H](CC(C)C)C(=O)N[C@@H](C)C(=O)N[C@@H](CCC(N)=O)C(=O)N[C@@H](CCCCN)C(=O)NCC(=O)N[C@@H](CCCCN)C(=O)O)C(C)C)[C@@H](C)CC
B2: AT361 (peptide)
peptide: EGTFISDYSIAMDKIK(C16 diacid)QQDFVNWLLAQKGKKNDW-OH
modifications: N-terminus assumed
SMILES: CC[C@H](C)[C@H](NC(=O)[C@H](CO)NC(=O)[C@H](Cc1ccc(O)cc1)NC(=O)[C@H](CC(=O)O)NC(=O)[C@H](CO)NC(=O)[C@@H](NC(=O)[C@H](Cc1ccccc1)NC(=O)[C@@H](NC(=O)CNC(=O)[C@@H](N)CCC(=O)O)[C@@H](C)O)[C@@H](C)CC)C(=O)N[C@@H](C)C(=O)N[C@@H](CCSC)C(=O)N[C@@H](CC(=O)O)C(=O)N[C@@H](CCCCN)C(=O)N[C@H](C(=O)N[C@@H](CCCCNC(=O)CCCCCCCCCCCCCCC(=O)O)C(=O)N[C@@H](CCC(N)=O)C(=O)N[C@@H](CCC(N)=O)C(=O)N[C@@H](CC(=O)O)C(=O)N[C@@H](Cc1ccccc1)C(=O)N[C@H](C(=O)N[C@@H](CC(N)=O)C(=O)N[C@@H](Cc1c[nH]c2ccccc12)C(=O)N[C@@H](CC(C)C)C(=O)N[C@@H](CC(C)C)C(=O)N[C@@H](C)C(=O)N[C@@H](CCC(N)=O)C(=O)N[C@@H](CCCCN)C(=O)NCC(=O)N[C@@H](CCCCN)C(=O)N[C@@H](CCCCN)C(=O)N[C@@H](CC(N)=O)C(=O)N[C@@H](CC(=O)O)C(=O)N[C@@H](Cc1c[nH]c2ccccc12)C(=O)O)C(C)C)[C@@H](C)CC
B3: AT451 (peptide)
peptide: EGTFISDYSIAMDKIK(C16 diacid)QQDFVNWLLAQKGKKNDWK-OH
modifications: N-terminus assumed
SMILES: CC[C@H](C)[C@H](NC(=O)[C@H](CO)NC(=O)[C@H](Cc1ccc(O)cc1)NC(=O)[C@H](CC(=O)O)NC(=O)[C@H](CO)NC(=O)[C@@H](NC(=O)[C@H](Cc1ccccc1)NC(=O)[C@@H](NC(=O)CNC(=O)[C@@H](N)CCC(=O)O)[C@@H](C)O)[C@@H](C)CC)C(=O)N[C@@H](C)C(=O)N[C@@H](CCSC)C(=O)N[C@@H](CC(=O)O)C(=O)N[C@@H](CCCCN)C(=O)N[C@H](C(=O)N[C@@H](CCCCNC(=O)CCCCCCCCCCCCCCC(=O)O)C(=O)N[C@@H](CCC(N)=O)C(=O)N[C@@H](CCC(N)=O)C(=O)N[C@@H](CC(=O)O)C(=O)N[C@@H](Cc1ccccc1)C(=O)N[C@H](C(=O)N[C@@H](CC(N)=O)C(=O)N[C@@H](Cc1c[nH]c2ccccc12)C(=O)N[C@@H](CC(C)C)C(=O)N[C@@H](CC(C)C)C(=O)N[C@@H](C)C(=O)N[C@@H](CCC(N)=O)C(=O)N[C@@H](CCCCN)C(=O)NCC(=O)N[C@@H](CCCCN)C(=O)N[C@@H](CCCCN)C(=O)N[C@@H](CC(N)=O)C(=O)N[C@@H](CC(=O)O)C(=O)N[C@@H](Cc1c[nH]c2ccccc12)C(=O)N[C@@H](CCCCN)C(=O)O)C(C)C)[C@@H](C)CC
B4: AT449 (peptide)
peptide: EGTFISDYSIAMDKIK(C16 diacid)QQDFVNWLLAQKGKKN-OH
modifications: N-terminus assumed
SMILES: CC[C@H](C)[C@H](NC(=O)[C@H](CO)NC(=O)[C@H](Cc1ccc(O)cc1)NC(=O)[C@H](CC(=O)O)NC(=O)[C@H](CO)NC(=O)[C@@H](NC(=O)[C@H](Cc1ccccc1)NC(=O)[C@@H](NC(=O)CNC(=O)[C@@H](N)CCC(=O)O)[C@@H](C)O)[C@@H](C)CC)C(=O)N[C@@H](C)C(=O)N[C@@H](CCSC)C(=O)N[C@@H](CC(=O)O)C(=O)N[C@@H](CCCCN)C(=O)N[C@H](C(=O)N[C@@H](CCCCNC(=O)CCCCCCCCCCCCCCC(=O)O)C(=O)N[C@@H](CCC(N)=O)C(=O)N[C@@H](CCC(N)=O)C(=O)N[C@@H](CC(=O)O)C(=O)N[C@@H](Cc1ccccc1)C(=O)N[C@H](C(=O)N[C@@H](CC(N)=O)C(=O)N[C@@H](Cc1c[nH]c2ccccc12)C(=O)N[C@@H](CC(C)C)C(=O)N[C@@H](CC(C)C)C(=O)N[C@@H](C)C(=O)N[C@@H](CCC(N)=O)C(=O)N[C@@H](CCCCN)C(=O)NCC(=O)N[C@@H](CCCCN)C(=O)N[C@@H](CCCCN)C(=O)N[C@@H](CC(N)=O)C(=O)O)C(C)C)[C@@H](C)CC
B5: AT450 (peptide)
peptide: EGTFISDYSIAMDKIK(C16 diacid)QQDFVNWLLAQKGKKND-OH
modifications: N-terminus assumed
SMILES: CC[C@H](C)[C@H](NC(=O)[C@H](CO)NC(=O)[C@H](Cc1ccc(O)cc1)NC(=O)[C@H](CC(=O)O)NC(=O)[C@H](CO)NC(=O)[C@@H](NC(=O)[C@H](Cc1ccccc1)NC(=O)[C@@H](NC(=O)CNC(=O)[C@@H](N)CCC(=O)O)[C@@H](C)O)[C@@H](C)CC)C(=O)N[C@@H](C)C(=O)N[C@@H](CCSC)C(=O)N[C@@H](CC(=O)O)C(=O)N[C@@H](CCCCN)C(=O)N[C@H](C(=O)N[C@@H](CCCCNC(=O)CCCCCCCCCCCCCCC(=O)O)C(=O)N[C@@H](CCC(N)=O)C(=O)N[C@@H](CCC(N)=O)C(=O)N[C@@H](CC(=O)O)C(=O)N[C@@H](Cc1ccccc1)C(=O)N[C@H](C(=O)N[C@@H](CC(N)=O)C(=O)N[C@@H](Cc1c[nH]c2ccccc12)C(=O)N[C@@H](CC(C)C)C(=O)N[C@@H](CC(C)C)C(=O)N[C@@H](C)C(=O)N[C@@H](CCC(N)=O)C(=O)N[C@@H](CCCCN)C(=O)NCC(=O)N[C@@H](CCCCN)C(=O)N[C@@H](CCCCN)C(=O)N[C@@H](CC(N)=O)C(=O)N[C@@H](CC(=O)O)C(=O)O)C(C)C)[C@@H](C)CC
B6: AT360 (peptide)
peptide: EGTFISDYSIAMDKIK(C16 diacid)QQDFVNWLLAQKGKK-OH
modifications: N-terminus assumed
SMILES: CC[C@H](C)[C@H](NC(=O)[C@H](CO)NC(=O)[C@H](Cc1ccc(O)cc1)NC(=O)[C@H](CC(=O)O)NC(=O)[C@H](CO)NC(=O)[C@@H](NC(=O)[C@H](Cc1ccccc1)NC(=O)[C@@H](NC(=O)CNC(=O)[C@@H](N)CCC(=O)O)[C@@H](C)O)[C@@H](C)CC)C(=O)N[C@@H](C)C(=O)N[C@@H](CCSC)C(=O)N[C@@H](CC(=O)O)C(=O)N[C@@H](CCCCN)C(=O)N[C@H](C(=O)N[C@@H](CCCCNC(=O)CCCCCCCCCCCCCCC(=O)O)C(=O)N[C@@H](CCC(N)=O)C(=O)N[C@@H](CCC(N)=O)C(=O)N[C@@H](CC(=O)O)C(=O)N[C@@H](Cc1ccccc1)C(=O)N[C@H](C(=O)N[C@@H](CC(N)=O)C(=O)N[C@@H](Cc1c[nH]c2ccccc12)C(=O)N[C@@H](CC(C)C)C(=O)N[C@@H](CC(C)C)C(=O)N[C@@H](C)C(=O)N[C@@H](CCC(N)=O)C(=O)N[C@@H](CCCCN)C(=O)NCC(=O)N[C@@H](CCCCN)C(=O)N[C@@H](CCCCN)C(=O)O)C(C)C)[C@@H](C)CC

Tests used:
[1] = molecular target: T1, human GIP receptor; test: cell-based or functional assay
[2] = molecular target: T1, human GIP receptor; test: cell-based or functional assay; remark: listed apart in the source

Row | Binder | cAMP agonism Emax [1] | cAMP antagonism [1] [nM] | cAMP antagonism % inhib [1] [%] | cAMP antagonism log [1] [log M] | cAMP agonism % Emax [2] [%] | cAMP antagonism [2] [nM] | cAMP antagonism % inhib [2] [%] | cAMP antagonism pIC50 [2]
1 | B1 | 6.2 | 6 | 77 | -8.2 | 0 | 1.36 | 96 | 8.9
2 | B2 | 5 | 2 | 100 | -8.8 | 0 | 3.76 | 99 | 8.4
3 | B3 | 9.2 | 8 | 75 | -8.1 | 0 | 2.33 | 99 | 8.6
4 | B4 | 8.6 | 4 | 95 | -8.4 | 0 | 5.84 | 89 | 8.2
5 | B5 | 5.8 | 3 | 57 | -8.5 | 0 | 2.29 | 97 | 8.6
6 | B6 | 20 | 86 | 85 | -7.1 | 0 | 12.6 | 96 | 7.9
